Here are results for eight substances from article PMC10506094.

A word on the stoichiometry N: it is the number of molecules, sites or subunits per partner or assembly.

In series [1] the target is Loa22 of L. borgpetersenii sv. Ballum str. M2, endogenous (Leptospira borgpetersenii sv. Ballum str. M2 (endogenous in cultivated cells)). Description: SDS-PAGE and immunoblot of whole cell lysates; Leptospira cells in SDS-PAGE buffer (4% SDS, 2% β-ME), sonicated and heated (10 min, 99 °C); blot screened with anti-Loa22_(27-197) antiserum; oligomer read from the size of the bands. For orientation: A western blot detects proteins with antibodies after separation by electrophoresis.

The target in series [2] is Loa22 of L. interrogans sv. Canicola str. Kito, endogenous (Leptospira interrogans sv. Canicola str. Kito (endogenous in cultivated cells)). The description is as above.
Series [3] concerns the target Loa22 of L. interrogans sv. Copenhageni str. Fiocruz L1-130, endogenous (Leptospira interrogans sv. Copenhageni str. Fiocruz L1-130 (endogenous in cultivated cells)). Described as above.
In series [4] the target is Loa22 of L. interrogans sv. Pomona str. LC82-25, endogenous (Leptospira interrogans sv. Pomona str. LC82-25 (endogenous in cultivated cells)). The series is described as above.
The target in series [5] is Loa22 of L. kirschneri sv. Grippotyphosa str. RM52, endogenous (Leptospira kirschneri sv. Grippotyphosa str. RM52 (endogenous in cultivated cells)). Described as above.
The target of series [6] is Loa22 of L. noguchii sv. Autumnalis str. Bonito, endogenous (Leptospira noguchii sv. Autumnalis str. Bonito (endogenous in cultivated cells)). The description is as above.
Series [7] is described as follows: SEC; TSKgel G4000SWXL column, PBS as mobile phase, 1.0 mL/min; 50 µg recombinant protein injected (25 µL); MW from a standard curve of globular proteins; fractions checked by SDS-PAGE and immunoblot with anti-Loa22_(27-197) antiserum. In general terms: In gel filtration, larger molecules generally elute earlier.
Series [8] has as its target recombinant Loa22_(27-197) (Leptospira OmpA-like 22 kDa protein) of L. interrogans sv. Copenhageni str. Fiocruz L1-130 (Leptospira interrogans sv. Copenhageni str. Fiocruz L1-130). The description is as above.

With “Loa22 of L. borgpetersenii sv. Ballum str. M2, endogenous (natural protein)”, the stoichiometry N in series [1] was 3. Consider “Loa22 of L. interrogans sv. Canicola str. Kito, endogenous (natural protein)”, for which the stoichiometry N in series [2] was found to be 3. Consider “Loa22 of L. interrogans sv. Copenhageni str. Fiocruz L1-130, endogenous (natural protein)”, for which the stoichiometry N in series [3] amounted to 3. Substance “Loa22 of L. interrogans sv. Pomona str. LC82-25, endogenous (natural protein)” showed a stoichiometry N in series [4] of 3.

“Loa22 of L. kirschneri sv. Grippotyphosa str. RM52, endogenous (natural protein)”: in series [5], the stoichiometry N amounted to 3. In series [6], “Loa22 of L. noguchii sv. Autumnalis str. Bonito, endogenous (natural protein)” yielded a stoichiometry N of 3. On to “recombinant Loa22_(27-197) (Leptospira OmpA-like 22 kDa protein) of L. interrogans sv. Copenhageni str. Fiocruz L1-130”, for which the “percent of the protein as monomer (area under the SEC peaks)” value in series [7] was “a majority of the recombinant protein exists as a monomer (89% of the total)”. In the case of “recombinant Loa22_(27-197) (Leptospira OmpA-like 22 kDa protein) of L. interrogans sv. Copenhageni str. Fiocruz L1-130 (domain or fragment)”, the stoichiometry N in series [8] amounted to 3.
